Results reported in PMC4486471 (Nature communications, 2014).

Biological target: the molecule itself
Assay: crystal structure

B1: auto-phosphorylated minimal dual catalytic domain fragment of murine IRE1α encompassing residues 549 to 977 (domain or fragment, mouse, UniProt Q9EQY0 549-977, looked up)
chain: SPSLEQDDEDEETRMVIVGKISFCPKDVLGHGAEGTIVYKGMFDNRDVAVKRILPECFSFADREVQLLRESDEHPNVIRYFCTEKDRQFQYIAIELCAATLQEYVEQKDFAHLGLEPITLLHQTTSGLAHLHSLNIVHRDLKPHNILLSMPNAHGRIKAMISDFGLCKKLAVGRHSFSRRSGVPGTEGWIAPEMLSEDCKDNPTYTVDIFSAGCVFYYVISEGYHPFGKSLQRQANILLGACNLDCFHSDKHEDVIARELIEKMIAMDPQQRPSAKHVLKHPFFWSLEKQLQFFQDVSDRIEKEALDGPIVRQLERGGRAVVKMDWRENITVPLQTDLRKFRTYKGGSVRDLLRAMRNKKHHYRELPVEVQETLGSIPDDFVRYFTSRFPHLLSHTYQAMELCRHERLFQTYYWHEPTEPQPPVIPYAL
modifications: auto-phosphorylated (sites not given)
binding result: binds
